Data from patent US20210253724A1 (Hoffmann-La Roche, published 2021).
Blank lines part the entries; values can stand above or below the binder they belong to.

Key:
[1] = target: T1, human FAP on NIH/3T3-huFAP clone 19 cells (human, UniProt Q12884 1-760); test: flow cytometry on NIH/3T3-huFAP clone 19 cells
T1 construct: NIH/3T3 cells transfected with a plasmid encoding human FAP
Experimental: (§1) Plates were incubated for 30 minutes at 4° C. and washed once with 200 μL 4° C. cold DPBS buffer. […] Cells were washed twice with 200 μL 4° C. DPBS buffer and then resuspended in 50 μL/well DPBS containing 1% Formaldehyde for fixation. The same or the next day cells were resuspended in 100 μL FACS-buffer and acquired using MACSQuant Analyzer 10 (Miltenyi Biotec).

[2] = target: T2, human 4-1BB (CD137) on Jurkat-hu4-1BB-NFκB-luc2 reporter cells (human, UniProt Q07011 24-255); test: cell-based or functional assay; design: AUC of NFκB-luciferase activation curve, no FAP+ cells / AUC of NFκB-luciferase activation curve, with WM-266-4 cells: unit not given beside the values
[3] = target: T2, human 4-1BB (CD137) on …; test: cell-based or functional assay
[4] = target: T1, human FAP on NIH/3T3-huFAP clone 19 …; test: flow cytometry on NIH/3T3-huFAP clone 19 cells; remark: listed apart in the source
Experimental: as §1

[5] = target: T3, hu4-1BB-SNAP Tb-labeled expressed on transfected Hek cells (human, UniProt Q07011 24-255, Tb (terbium) label on the SNAP tag); test: TR-FRET (TagLite) competition against d2-labeled 20H4.9 IgG1 (0.6 nM), after 4 h
T3 construct: SNAP-tag fusion of human 4-1BB; also called Tb hu4-1BB-SNAP

[6] = target: T2, human 4-1BB (CD137) on …; test: flow cytometry on Jurkat-hu4-1BB-NFκB-luc2 cells
Experimental: Plates were incubated for 30 minutes at 4° C. and washed once with 200 μL 4° C. cold DPBS buffer. […] Cells were washed twice with 200 μL 4° C. DPBS buffer and then resuspended in 50 μL/well DPBS containing 1% Formaldehyde for fixation. The same or the next day cells were resuspended in 100 μL FACS-buffer and acquired using MACSQuant Analyzer X (Miltenyi Biotec).

[7] = target: T2, human 4-1BB (CD137) on …; test: cell-based or functional assay; remark: listed apart in the source
[8] = target: T2, human 4-1BB (CD137) on …; test: cell-based or functional assay; design: AUC of NFκB-luciferase activation curve, no CEA+ cells / AUC of NFκB-luciferase activation curve, with CHO-k1-cynoCEACAM5 clone 8: unit not given beside the values
[9] = target: T4, cynomolgus monkey CEACAM5 on CHO-k1-cynoCEACAM5 clone 8 cells (cynomolgus monkey); test: flow cytometry on CHO-k1-cynoCEACAM5 clone 8; design: unit not given beside the values
T4 construct: whole, on cells

human 4-1BB Fc(kih) = target: T5, human 4-1BB Fc(kih) (human, UniProt P01857 104-328 = IgG part); test: SPR (Biacore T200), human 4-1BB-Fc(kih) amine-coupled on a CM5 chip, antibody 150 nM as analyte 1
T5 construct: Monomeric Fc-linked antigen: 4-1BB ectodomain, AcTEV site, Fc knob and Avi tag, paired with an Fc hole chain; also called hu4-1BB-Fc(kih); human 4-1BB antigen Fc knob chain with Fc hole chain
T5 sequence (P01857 other isoform, or with tags, fused parts or gaps limits assumed): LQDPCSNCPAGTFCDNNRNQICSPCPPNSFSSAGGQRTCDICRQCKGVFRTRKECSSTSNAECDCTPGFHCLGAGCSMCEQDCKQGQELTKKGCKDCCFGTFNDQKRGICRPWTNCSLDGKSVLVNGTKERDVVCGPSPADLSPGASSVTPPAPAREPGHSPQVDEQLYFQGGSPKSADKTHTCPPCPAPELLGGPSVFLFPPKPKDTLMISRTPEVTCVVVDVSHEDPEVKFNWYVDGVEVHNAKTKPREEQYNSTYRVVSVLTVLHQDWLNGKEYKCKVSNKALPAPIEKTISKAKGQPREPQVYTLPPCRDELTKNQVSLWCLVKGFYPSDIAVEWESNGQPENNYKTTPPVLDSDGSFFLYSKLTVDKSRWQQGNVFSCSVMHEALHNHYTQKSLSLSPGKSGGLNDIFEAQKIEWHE
Experimental: All SPR experiments were performed on a Biacore T200 at 25° C. with HBS-EP as running buffer (0.01 M HEPES pH 7.4, 0.15 M NaCl, 3 mM EDTA, 0.005% Surfactant P20, Biacore, Freiburg/Germany). […] Immobilization level of approx. 900 RU was used.
The dissociation was monitored for 240 sec. Bulk refractive index differences were corrected for by subtracting the response obtained in a reference flow cell, where no protein was immobilized.

[10] = target: T2, human 4-1BB (CD137) on …; test: cell-based or functional assay; remark: listed apart in the source

- EC50 [1]: 3.94 nM
- AUC of NFκB-luciferase activation curve, no FAP+ cells [2]: 4360
- AUC of NFκB-luciferase activation curve, with NIH/3T3-huFAP clone 19 cells [2]: 95100
- AUC of NFκB-luciferase activation curve, with WM-266-4 cells [2]: 30900
- EC50 of NFκB-luciferase activation curve, with NIH/3T3-huFAP clone 19 cells [3]: 0.008 nM
- EC50 of NFκB-luciferase activation curve, with WM-266-4 cells [3]: 0.028 nM
- AUC [4]: 21200
- IC50 [5]: 2.5 nM
B1: 4-1BB (20H4.9)/FAP (4B9) P329GLALA IgG1 2+1 VH/VL (C-terminal) (bispecific antibody)
heavy 1: QVQLQQWGAGLLKPSETLSLTCAVYGGSFSGYYWSWIRQSPEKGLEWIGEINHGGYVTYNPSLESRVTISVDTSKNQFSLKLSSVTAADTAVYYCARDYGPGNYDWYFDLWGRGTLVTVSSASTKGPSVFPLAPSSKSTSGGTAALGCLVKDYFPEPVTVSWNSGALTSGVHTFPAVLQSSGLYSLSSVVTVPSSSLGTQTYICNVNHKPSNTKVDKKVEPKSCDKTHTCPPCPAPEAAGGPSVFLFPPKPKDTLMISRTPEVTCVVVDVSHEDPEVKFNWYVDGVEVHNAKTKPREEQYNSTYRVVSVLTVLHQDWLNGKEYKCKVSNKALGAPIEKTISKAKGQPREPQVCTLPPSRDELTKNQVSLSCAVKGFYPSDIAVEWESNGQPENNYKTTPPVLDSDGSFFLVSKLTVDKSRWQQGNVFSCSVMHEALHNHYTQKSLSLSPGGGGGSGGGGSGGGGSGGGGSEVQLLESGGGLVQPGGSLRLSCAASGFTFSSYAMSWVRQAPGKGLEWVSAIIGSGASTYYADSVKGRFTISRDNSKNTLYLQMNSLRAEDTAVYYCAKGWFGGFNYWGQGTLVTVSS
heavy 2: not shown
light: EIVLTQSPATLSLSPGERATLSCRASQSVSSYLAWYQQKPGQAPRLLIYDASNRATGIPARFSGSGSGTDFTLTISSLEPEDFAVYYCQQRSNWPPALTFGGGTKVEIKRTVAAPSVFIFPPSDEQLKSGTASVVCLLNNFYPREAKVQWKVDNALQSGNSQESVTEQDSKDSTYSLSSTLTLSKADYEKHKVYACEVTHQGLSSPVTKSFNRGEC
notes: Control format: FAP VH and VL fused to the C-termini of the heavy chains; also called 2+1 VH/VL anti-4-1BB (20H4.9)×anti-FAP (4B9) huIgG1 P329GLALA; 2+1 (C-terminal)

- EC50 [1]: 1.81 nM
- AUC of NFκB-luciferase activation curve, no FAP+ cells [2]: 715
- AUC of NFκB-luciferase activation curve, with NIH/3T3-huFAP clone 19 cells [2]: 109000
- AUC of NFκB-luciferase activation curve, with WM-266-4 cells [2]: 49400
- EC50 of NFκB-luciferase activation curve, with NIH/3T3-huFAP clone 19 cells [3]: 0.02 nM
- EC50 of NFκB-luciferase activation curve, with WM-266-4 cells [3]: 0.06 nM
- AUC [4]: 40200
- EC50 [6]: 0.062 nM
- IC50 [5]: 1.9 nM
B2: 2+1 H2H 4-1BB (20H4.9)/FAP (4B9) P329GLALA IgG1 (bispecific antibody)
heavy 1: QVQLQQWGAGLLKPSETLSLTCAVYGGSFSGYYWSWIRQSPEKGLEWIGEINHGGYVTYNPSLESRVTISVDTSKNQFSLKLSSVTAADTAVYYCARDYGPGNYDWYFDLWGRGTLVTVSSASTKGPSVFPLAPSSKSTSGGTAALGCLVEDYFPEPVTVSWNSGALTSGVHTFPAVLQSSGLYSLSSVVTVPSSSLGTQTYICNVNHKPSNTKVDEKVEPKSCDKTHTCPPCPAPEAAGGPSVFLFPPKPKDTLMISRTPEVTCVVVDVSHEDPEVKFNWYVDGVEVHNAKTKPREEQYNSTYRVVSVLTVLHQDWLNGKEYKCKVSNKALGAPIEKTISKAKGQPREPQVCTLPPSRDELTKNQVSLSCAVKGFYPSDIAVEWESNGQPENNYKTTPPVLDSDGSFFLVSKLTVDKSRWQQGNVFSCSVMHEALHNHYTQKSLSLSP
heavy 2: not shown
light 1: not shown
light 2: EVQLLESGGGLVQPGGSLRLSCAASGFTFSSYAMSWVRQAPGKGLEWVSAIIGSGASTYYADSVKGRFTISRDNSKNTLYLQMNSLRAEDTAVYYCAKGWFGGFNYWGQGTLVTVSSASVAAPSVFIFPPSDEQLKSGTASVVCLLNNFYPREAKVQWKVDNALQSGNSQESVTEQDSKDSTYSLSSTLTLSKADYEKHKVYACEVTHQGLSSPVTKSFNRGEC
notes: Bivalent for 4-1BB, monovalent for FAP (cross-Fab fused head to head); also called 4-1BB (20H.9)×FAP 2+1 H2H; anti-4-1BB (20H4.9)×anti-FAP (4B9) 2+1 H2H huIgG1 P329GLALA

- EC50 of NFκB-luciferase activation curve, no CEA+ cells [7]: 0.1 nM
- EC50 of NFκB-luciferase activation curve, with CHO-k1-cynoCEACAM5 clone 8 [7]: 0.14 nM
- EC50 of NFκB-luciferase activation curve, with CHO-k1-humanCEACAM5 clone 11 [7]: 0.02 nM
- EC50 of NFκB-luciferase activation curve, with CHO-k1-humanCEACAM5 clone 12 [7]: 0.02 nM
- AUC of NFκB-luciferase activation curve, no CEA+ cells [8]: 774
- AUC of NFκB-luciferase activation curve, with CHO-k1-cynoCEACAM5 clone 8 [8]: 802
- AUC of NFκB-luciferase activation curve, with CHO-k1-humanCEACAM5 clone 11 [8]: 76200
- AUC of NFκB-luciferase activation curve, with CHO-k1-humanCEACAM5 clone 12 [8]: 72300
- AUC [9]: 169
B3: 2+1 H2H 4-1BB (20H4.9)/CEA (MFE23) huIgG1 P329GLALA (bispecific antibody)
heavy 1: B2 heavy 1
heavy 2: not shown
light 1: not shown
light 2: QVKLQQSGAELVRSGTSVKLSCTASGFNIKDSYMHWLRQGPEQGLEWIGWIDPENGDTEYAPKFQGKATFTTDTSSNTAYLQLSSLTSEDTAVYYCNEGTPTGPYYFDYWGQGTTVTVSSASVAAPSVFIFPPSDEQLKSGTASVVCLLNNFYPREAKVQWKVDNALQSGNSQESVTEQDSKDSTYSLSSTLTLSKADYEKHKVYACEVTHQGLSSPVTKSFNRGEC
notes: also called 2+1 H2H anti-4-1BB (20H4.9)×anti-CEA (MFE23) huIgG1 P329GLALA

- EC50 of NFκB-luciferase activation curve, no CEA+ cells [7]: 0.09 nM
- EC50 of NFκB-luciferase activation curve, with CHO-k1-cynoCEACAM5 clone 8 [7]: 0.1 nM
- EC50 of NFκB-luciferase activation curve, with CHO-k1-humanCEACAM5 clone 11 [7]: 0.05 nM
- EC50 of NFκB-luciferase activation curve, with CHO-k1-humanCEACAM5 clone 12 [7]: 0.04 nM
- AUC of NFκB-luciferase activation curve, no CEA+ cells [8]: 1130
- AUC of NFκB-luciferase activation curve, with CHO-k1-cynoCEACAM5 clone 8 [8]: 26500
- AUC of NFκB-luciferase activation curve, with CHO-k1-humanCEACAM5 clone 11 [8]: 58100
- AUC of NFκB-luciferase activation curve, with CHO-k1-humanCEACAM5 clone 12 [8]: 56600
- AUC [9]: 614
B4: 2+1 H2H 4-1BB (20H4.9)/CEA (A5H1EL1D) huIgG1 P329GLALA (bispecific antibody)
heavy 1: B2 heavy 1
heavy 2: not shown
light 1: not shown
light 2: EVQLLESGGGLVQPGGSLRLSCAASGFTFTDYYMNWVRQAPGKGLEWLGFIGNKANAYTTEYSASVKGRFTISRDKSKNTLYLQMNSLRAEDTATYYCTRDRGLRFYFDYWGQGTTVTVSSASVAAPSVFIFPPSDEQLKSGTASVVCLLNNFYPREAKVQWKVDNALQSGNSQESVTEQDSKDSTYSLSSTLTLSKADYEKHKVYACEVTHQGLSSPVTKSFNRGEC
notes: also called 2+1 H2H anti-4-1BB (20H4.9)×anti-CEA (A5H1EL1D) huIgG1 P329GLALA

- binding result (human 4-1BB Fc(kih)): binds
- EC50 of NFκB-luciferase activation curve, with MKN45-huPD-L1 cells [10]: 0.1 nM
B5: 1+1 4-1BB (20H4.9)/PD-L1 human IgG1 PGLALA (bispecific antibody)
heavy 1: B2 heavy 1
heavy 2: not shown
light 1: not shown
light 2: not shown
notes: Monovalent for 4-1BB and for PD-L1; also called 1+1 anti-4-1BB (20H4.9)×anti-PD-L1 huIgG1 P329GLALA; 1+1 H2H 4-1BB (20H4.9)/PD-L1 human IgG1 PGLALA

- EC50 of NFκB-luciferase activation curve, with MKN45-huPD-L1 cells [10]: 0.04 nM
B6: 2+1 H2H 4-1BB (20H4.9)/PD-L1 human IgG1 PGLALA (bispecific antibody)
heavy 1: B2 heavy 1
heavy 2: not shown
light 1: not shown
light 2: not shown

- AUC of NFκB-luciferase activation curve, no FAP+ cells [2]: 181
- AUC of NFκB-luciferase activation curve, with NIH/3T3-huFAP clone 19 cells [2]: 195
- AUC of NFκB-luciferase activation curve, with WM-266-4 cells [2]: 191
B7: Anti-FAP (4B9) huIgG1 P329GLALA (antibody, V domains shown)
VH: EVQLLESGGGLVQPGGSLRLSCAASGFTFSSYAMSWVRQAPGKGLEWVSAIIGSGASTYYADSVKGRFTISRDNSKNTLYLQMNSLRAEDTAVYYCAKGWFGGFNYWGQGTLVTVSS
VL: EIVLTQSPGTLSLSPGERATLSCRASQSVTSSYLAWYQQKPGQAPRLLINVGSRRATGIPDRFSGSGSGTDFTLTISRLEPEDFAVYYCQQGIMLPPTFGQGTKVEIK
